Measured values published in patent publication US7326418B2, “Identification of novel factors that block programmed cell death or apoptosis by targeting JNK” (University of Chicago, priority 2001, dated 2008).

Molecular target: T1, GST-MKK7 (Homo sapiens, UniProt O14733, Q133P/Q94H)
T1 construct: made in house; host or cells: E. coli BL21
T1 sequence (O14733 1-401 Q94H/Q133P limits assumed): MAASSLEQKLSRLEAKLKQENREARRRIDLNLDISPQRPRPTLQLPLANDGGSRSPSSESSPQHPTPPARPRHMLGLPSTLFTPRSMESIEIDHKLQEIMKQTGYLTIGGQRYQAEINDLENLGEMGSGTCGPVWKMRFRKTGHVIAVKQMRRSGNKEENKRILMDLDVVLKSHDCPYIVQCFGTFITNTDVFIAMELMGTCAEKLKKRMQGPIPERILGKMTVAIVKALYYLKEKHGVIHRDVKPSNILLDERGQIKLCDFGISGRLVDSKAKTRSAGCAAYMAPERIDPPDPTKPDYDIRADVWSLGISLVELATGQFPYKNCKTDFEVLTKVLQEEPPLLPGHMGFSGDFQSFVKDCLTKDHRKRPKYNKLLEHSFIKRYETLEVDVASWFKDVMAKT
Assay: In vitro pull-down with purified proteins: His6/T7-tagged proteins binding to GST-MKK7
Conditions: JIP1 used under non-saturating conditions, read-out: half maximum binding (HMB) value for binding to GST-MKK7
Source text: Protein levels are shown (bottom). b, g, Coomassie brilliant blue staining (CS) showing purity of the proteins used in (c) and (d, e), respectively. c, In vitro pull-down assays with purified proteins showing direct interaction between His6/T7-Gadd45β (His6disclosed as SEQ ID NO: 46) and GST-MKK7. Precipitated GST proteins and bound His6/T7-tagged proteins(His6 disclosed as SEQ ID NO: 46) were visualized by CS and Western blotting (WB) with anti-T7 antibodies, respectively. Inputs of His6/T7-tagged proteins (His6 disclosed as SEQ ID NO: 46) are indicated. The fraction of His6/T7-Gadd45β (His6 disclosed as SEQ ID NO: 46) and His6/T7-JIP1 (His6 disclosed as SEQ ID NO: 46) binding to GST-MKK7 (expressed as arbitrary units [a.u.]; left) was calculated relatively to a standard curve generated with known protein concentrations^19. d, e, Kinase assays showing specific inhibition of active MKK7 by purified GST-Gadd45β and His6-Gadd45β (His6 disclosed as SEQ ID NO: 46), in vitro. […]
Interaction of endogenous Gadd45β and MKK7 was detected readily (FIG. 28a). […]
GST precipitations with in vitro-translated proteins or purified proteins (FIG. 26-30), and kinase assays were performed. […] MKK7 phosphorylation was monitored by performing immunoprecipitations with anti-P-MKK7 antibodies (developed at Cell Signaling) followed by Western blots with anti-total MKK7 antibodies. […]

B1: Gadd45β: purified recombinant His6-tagged Gadd45β protein; also used generically for the recombinant Gadd45β proteins (protein, UniProt O75293 1-160, looked up)
Growth arrest and DNA …: MTLEELVACDNAAQKMQTVTAAVEELLVAAQRQDRLTVGVYESAKLMNVDPDSVVLCLLAIDEEEEDDIALQIHFTLIQSFCCDNDINIVRVSGMQRLAQLLGEPAETQGTTEARDLHCLLVTNPHTDAWKSHGLVEVASYCEESRGNNQWVPYISLQER
modifications: His6 tag
notes: purified recombinant His6-tagged Gadd45β protein; also used generically for the recombinant Gadd45β proteins
Q: With B1 as the molecule, how does the Kd read?
A: The Kd was about 390 nM.
